# Laboratory results published in publication PMC3795964 (Journal of molecular biology, 2013).
# Molecular target: 6XHIS-tagged Dbp2 (S. cerevisiae, UniProt P24783 1-546)
# Assay: pull-down
# 6XHIS-tagged Dbp2, sequence (P24783 whole entry): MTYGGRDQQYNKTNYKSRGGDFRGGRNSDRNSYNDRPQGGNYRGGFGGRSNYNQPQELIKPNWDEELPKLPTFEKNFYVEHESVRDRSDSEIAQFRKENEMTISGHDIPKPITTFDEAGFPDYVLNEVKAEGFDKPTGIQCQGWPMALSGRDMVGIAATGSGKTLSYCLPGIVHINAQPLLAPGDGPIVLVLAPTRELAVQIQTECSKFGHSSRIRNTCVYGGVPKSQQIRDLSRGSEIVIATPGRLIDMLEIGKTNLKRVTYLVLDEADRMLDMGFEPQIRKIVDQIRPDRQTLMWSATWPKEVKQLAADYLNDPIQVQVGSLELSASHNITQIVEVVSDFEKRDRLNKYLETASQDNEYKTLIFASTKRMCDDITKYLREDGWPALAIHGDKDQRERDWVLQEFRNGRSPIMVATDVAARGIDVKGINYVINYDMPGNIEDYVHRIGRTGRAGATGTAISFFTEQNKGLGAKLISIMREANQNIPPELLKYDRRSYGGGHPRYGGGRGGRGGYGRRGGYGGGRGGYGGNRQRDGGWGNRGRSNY
row,binding result,Binder
1,binds,"GST-tagged Yra1 (full length) (natural protein, S. cerevisiae, UniProt Q12159 1-226, looked up) MSANLDKSLDEIIGSNKAGSNRARVGGTRGNGPRRVGKQVGSQRRSLPNRRGPIRKNTRAPPNAVARVAKLLDTTREVKVNVEGLPRDIKQDAVREFFASQVGGVQRVLLSYNERGQSTGMANITFKNGELARRAVERFNGSPIDGGRSRLRLNLIVDPNQRPVKSLADRIKAMPQKGGNAPRPVKRGPNRKAAMAKSQNKPKREKPAKKSLEDLDKEMADYFEKK"
2,binds,"GST-Yra1 C (domain or fragment, S. cerevisiae, UniProt Q12159 124-226, looked up) ITFKNGELARRAVERFNGSPIDGGRSRLRLNLIVDPNQRPVKSLADRIKAMPQKGGNAPRPVKRGPNRKAAMAKSQNKPKREKPAKKSLEDLDKEMADYFEKK"
